Numbering of substitutions follows the chain as printed.
B1: XENP36169 H1.186 L1 (antibody, V domains shown)
VH: QLQVQESGPGLVKPSETLSLTCTVSGGSISESYFSWGWIRQPPGKGLEWIGSFYYGGKTYYNPSLKSRATISIDTSKNQFSLKLSSVTAADTAVYYCARGPTTIRGVIDSWGQGTLVTVSS
VL: EIVLTQSPATLSLSPGERATLSCRASQSVRSYLAWYQQKPGQAPRLLIYDASNRATGIPARFSGSGSGTDFTLTISSLEPEDFAVYYCQQRSNWPPTFGQGTKVEIK
B2: XENP36170 H1.187 L1 (antibody, V domains shown)
VH: B1 VH with T103V
VL: B1 VL
B3: XENP36168 H1.185 L1 (antibody, V domains shown)
VH: B1 VH with T103L
VL: B1 VL
B4: XENP36179 H1.196 L1 (antibody, V domains shown)
VH: B1 VH with E31Q, T103M
VL: B1 VL
B5: XENP36176 H1.193 L1 (antibody, V domains shown)
VH: B1 VH with E31T, T103L
VL: B1 VL
B6: XENP34288 H1.1 L1 (antibody, V domains shown)
VH: B1 VH with E31N, G57E, N78S, A98P, T103V
VL: B1 VL
B7: XENP36172 H1.189 L1 (antibody, V domains shown)
VH: B1 VH with E31S, T103L
VL: B1 VL
B8: XENP36183 H1.200 L1 (antibody, V domains shown)
VH: B1 VH with E31N, S32A, T103M
VL: B1 VL
B9: XENP36186 H1.203 L1 (antibody, V domains shown)
VH: B1 VH with E31N, S32A, T103V
VL: B1 VL
B10: XENP36184 H1.201 L1 (antibody, V domains shown)
VH: B1 VH with E31N, S32A, T103L
VL: B1 VL
B11: XENP35104 H1.29 L1 (antibody, V domains shown)
VH: B1 VH with E31N, S35T, G57E, N78S, A98P, T103M
VL: B1 VL
B12: XENP35107 H1.36 L1 (antibody, V domains shown)
VH: B1 VH with E31N, G37S, G57E, N78S, A98P, T103M
VL: B1 VL
B13: XENP36185 H1.202 L1 (antibody, V domains shown)
VH: B1 VH with E31N, S32A
VL: B1 VL
B14: XENP36166 H1.183 L1 (antibody, V domains shown)
VH: B1 VH with E31N, T103M, I108F
VL: B1 VL
B15: XENP35105 H1.30 L1 (antibody, V domains shown)
VH: B1 VH with E31N, S35Y, G57E, N78S, A98P, T103M
VL: B1 VL
B16: XENP36174 H1.191 L1 (antibody, V domains shown)
VH: B1 VH with E31S, T103V
VL: B1 VL
B17: XENP36171 H1.188 L1 (antibody, V domains shown)
VH: B1 VH with E31S, T103M
VL: B1 VL
B18: XENP36177 H1.194 L1 (antibody, V domains shown)
VH: B1 VH with E31T
VL: B1 VL
B19: XENP36178 H1.195 L1 (antibody, V domains shown)
VH: B1 VH with E31T, T103V
VL: B1 VL
B20: XENP36164 H1.181 L1 (antibody, V domains shown)
VH: B1 VH with E31N, T103M
VL: B1 VL
B21: XENP36175 H1.192 L1 (antibody, V domains shown)
VH: B1 VH with E31T, T103M
VL: B1 VL
B22: XENP36173 H1.190 L1 (antibody, V domains shown)
VH: B1 VH with E31S
VL: B1 VL
B23: XENP36167 H1.184 L1 (antibody, V domains shown)
VH: B1 VH with T103M
VL: B1 VL
B24: H1 L1.4 XENP34567 (antibody, V domains shown)
VH: B1 VH with E31N, G57E, N78S, A98P, T103M
VL: B1 VL with L13V
B25: H1 L1.1 XENP34564 (antibody, V domains shown)
VH: B1 VH with E31N, G57E, N78S, A98P, T103M
VL: B1 VL with L4M
B26: H1.103 L1 XENP34559 (antibody, V domains shown)
VH: B1 VH with E31N, G57E, N78S, A98P, T103M, S110L
VL: B1 VL
B27: H1.100 L1 XENP34556 (antibody, V domains shown)
VH: B1 VH with E31N, G57E, N78S, A98P, T103M, I108F
VL: B1 VL
B28: H1.91 L1 XENP34547 (antibody, V domains shown)
VH: B1 VH with E31N, G57E, N78S, A98P, T103M, I104V
VL: B1 VL
B29: H1.102 L1 XENP34558 (antibody, V domains shown)
VH: B1 VH with E31N, G57E, N78S, A98P, T103M, S110H
VL: B1 VL
B30: H1.107 L1 XENP34563 (antibody, V domains shown)
VH: B1 VH with E31N, G57E, N78S, A98P, T103M, L116T
VL: B1 VL
B31: H1.106 L1 XENP34562 (antibody, V domains shown)
VH: B1 VH with E31N, G57E, N78S, A98P, T103M, L116M
VL: B1 VL
B32: H1 L1.2 XENP34565 (antibody, V domains shown)
VH: B1 VH with E31N, G57E, N78S, A98P, T103M
VL: B1 VL with A9G
B33: H1 L1.6 XENP34569 (antibody, V domains shown)
VH: B1 VH with E31N, G57E, N78S, A98P, T103M
VL: B1 VL with R24G
B34: H1.87 L1 XENP34543 (antibody, V domains shown)
VH: B1 VH with E31N, G57E, N78S, A98P, T103Q
VL: B1 VL
B35: H1.101 L1 XENP34557 (antibody, V domains shown)
VH: B1 VH with E31N, G57E, N78S, A98P, T103M, I108M
VL: B1 VL

Each binder was assayed against T1, human TGFßRII (antigen of the Octet experiments) (human, UniProt P37173 23-166) (assay: not given).
T1 sequence (P37173 23-166): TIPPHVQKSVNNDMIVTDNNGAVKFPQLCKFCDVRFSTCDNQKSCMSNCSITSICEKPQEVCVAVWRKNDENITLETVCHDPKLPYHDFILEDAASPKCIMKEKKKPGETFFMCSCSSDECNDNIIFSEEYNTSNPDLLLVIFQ

| Kd [nM] | Binder |
| --- | --- |
| 10.1 | B1 |
| 9.08 | B2 |
| 7.26 | B3 |
| 3.69 | B4 |
| 7.15 | B5 |
| 4.26 | B6 |
| 6.99 | B7 |
| 3.02 | B8 |
| 6.44 | B9 |
| 5.27 | B10 |
| 2.43 | B11 |
| 2.89 | B12 |
| 7.4 | B13 |
| 6.15 | B14 |
| 15.4 | B15 |
| 8.43 | B16 |
| 4.19 | B17 |
| 9.77 | B18 |
| 8.42 | B19 |
| 2.29 | B20 |
| 4.38 | B21 |
| 9.24 | B22 |
| 4.34 | B23 |

These binders were tested against T1, human TGFßRII (antigen of the Octet …) (assay: BLI (Octet)).

| Kd [nM] | Binder |
| --- | --- |
| 0.601 | B24 |
| 0.569 | B25 |
| 0.16 | B26 |
| 0.898 | B27 |
| 0.512 | B28 |
| 0.139 | B29 |
| 0.109 | B30 |
| 0.624 | B31 |
| 0.361 | B32 |
| 2.24 | B33 |
| 1.58 | B34 |
| 0.492 | B35 |

— patent US20220144956A1 (published 2022)
